{"source": "paper PMC7004846", "target": "Aquifex aeolicus VF5 Wzt carbohydrate-binding domain (residues 235-395), long construct (Aquifex aeolicus VF5)", "test": "SEC"}
{"substance": "Aquifex aeolicus VF5 Wzt carbohydrate-binding domain (residues 235-395), long construct (domain or fragment)", "values": [{"measurement": "stoichiometry N", "result": 2}]}
